Reference: publication PMC3847324, “Jun dimerization protein 2 is a critical component of the Nrf2/MafK complex regulating the response to ROS homeostasis”

Assays:
Assay in all cases: EMSA; EMSA: 5 ug GST fusion or 10 ng IVT protein, 25 C 30 min; 5% native PAGE in 0.5x TBE at 4 C; binding buffer, salt and pH not given
[1] = target: IVT-MafK (rat, UniProt Q8K4B3 1-156); details: protein: ivt; chain copies: 2; label: 32P 5' end (T4 kinase) as probe; blunt
[2] = target: T1, IVT-JDP2 (mouse, UniProt P97875 1-163); details: protein: ivt; chain copies: 2; label: 32P 5' end (T4 kinase) as probe; blunt
T1 sequence: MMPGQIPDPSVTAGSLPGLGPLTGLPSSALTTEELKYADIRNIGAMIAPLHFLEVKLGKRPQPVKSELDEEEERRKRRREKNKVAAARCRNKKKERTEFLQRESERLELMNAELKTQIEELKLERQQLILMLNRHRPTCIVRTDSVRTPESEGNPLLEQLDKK

[3] = target: T2, GST-JDP2 (mouse, UniProt P97875 1-163); details: protein: recombinant; tags: GST; chain copies: 2; label: 32P 5' end (T4 kinase) as probe; blunt
T2 sequence: T1 sequence

Measured: binding result

Sequence of IVT-MafK (Q8K4B3 entry or part of it): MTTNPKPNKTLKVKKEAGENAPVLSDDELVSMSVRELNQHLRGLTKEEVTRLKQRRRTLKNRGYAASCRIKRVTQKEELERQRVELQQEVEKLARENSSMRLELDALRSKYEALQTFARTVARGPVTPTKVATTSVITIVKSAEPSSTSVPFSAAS

B1: human NQO1-ARE WT (dsDNA)
DNA 1: CAGTCACAGTGACTCAGCAGAATCT
DNA 2: AGATTCTGCTGAGTCACTGTGACTG
binds: all assays above
